Measured values as given in paper PMC4123461 (Experimental eye research, 2014).
Numbering of substitutions follows the chain as printed. Names and notes keep the numbering of the source.

T1: Best1-CFP (human, UniProt O76090 1-585)
T1 sequence (looked up): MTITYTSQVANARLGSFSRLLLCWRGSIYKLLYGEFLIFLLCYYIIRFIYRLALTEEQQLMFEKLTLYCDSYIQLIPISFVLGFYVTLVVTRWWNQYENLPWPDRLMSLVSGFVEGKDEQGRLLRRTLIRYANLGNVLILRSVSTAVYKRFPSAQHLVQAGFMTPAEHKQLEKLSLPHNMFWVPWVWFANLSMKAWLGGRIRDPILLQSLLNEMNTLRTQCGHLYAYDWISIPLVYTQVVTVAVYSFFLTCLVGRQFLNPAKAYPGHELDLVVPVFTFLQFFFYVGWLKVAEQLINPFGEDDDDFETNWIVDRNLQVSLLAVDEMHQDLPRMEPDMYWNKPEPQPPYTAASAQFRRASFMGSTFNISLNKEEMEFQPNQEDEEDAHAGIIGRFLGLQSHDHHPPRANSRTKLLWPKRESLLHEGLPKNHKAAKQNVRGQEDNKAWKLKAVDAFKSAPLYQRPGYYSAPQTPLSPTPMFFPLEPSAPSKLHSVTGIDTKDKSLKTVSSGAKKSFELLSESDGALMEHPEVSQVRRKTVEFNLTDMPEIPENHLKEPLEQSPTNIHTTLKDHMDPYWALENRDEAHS

B1: N179del Best1-YFP (natural protein, human, UniProt O76090 1-585, looked up)
chain: MTITYTSQVANARLGSFSRLLLCWRGSIYKLLYGEFLIFLLCYYIIRFIYRLALTEEQQLMFEKLTLYCDSYIQLIPISFVLGFYVTLVVTRWWNQYENLPWPDRLMSLVSGFVEGKDEQGRLLRRTLIRYANLGNVLILRSVSTAVYKRFPSAQHLVQAGFMTPAEHKQLEKLSLPHMFWVPWVWFANLSMKAWLGGRIRDPILLQSLLNEMNTLRTQCGHLYAYDWISIPLVYTQVVTVAVYSFFLTCLVGRQFLNPAKAYPGHELDLVVPVFTFLQFFFYVGWLKVAEQLINPFGEDDDDFETNWIVDRNLQVSLLAVDEMHQDLPRMEPDMYWNKPEPQPPYTAASAQFRRASFMGSTFNISLNKEEMEFQPNQEDEEDAHAGIIGRFLGLQSHDHHPPRANSRTKLLWPKRESLLHEGLPKNHKAAKQNVRGQEDNKAWKLKAVDAFKSAPLYQRPGYYSAPQTPLSPTPMFFPLEPSAPSKLHSVTGIDTKDKSLKTVSSGAKKSFELLSESDGALMEHPEVSQVRRKTVEFNLTDMPEIPENHLKEPLEQSPTNIHTTLKDHMDPYWALENRDEAHS
B2: WT Best1-YFP (natural protein, human, UniProt O76090 1-585, looked up)
chain: T1 sequence (looked up)
B3: A146L Best1-YFP (natural protein, human, UniProt O76090 1-585, looked up)
chain: T1 sequence (looked up) with A146L

biological target: T1, Best1-CFP; assay: FRET or BRET

Row | Binder | FRET efficiency (%E)
1 | B1 | 12.4%
2 | B2 | 13.6%
3 | B3 | 14.8%
